The term stoichiometry N denotes the number of molecules, sites or subunits per partner or assembly.

The values below come from PMC3662962 (Biochemical and biophysical research communications, 2010).

The data set deals with the molecule itself.

B1: PAS domain of Mycobacterium tuberculosis Rv1364c (residues 1-163) (domain or fragment)
chain: MAAEMDWDKTVGAAEDVRRIFEHIPAILVGLEGPDHRFVAVNAAYRGFSPLLDTVGQPAREVYPELEGQQIYEMLDRVYQTGEPQSGSEWRLQTDYDGSGVEERYFDFVVTPRRRADGSIEGVQLIVDDVTSRVRARQAAEARVEELSERYRNVRDSATVMQQ
modifications: Se-Methionine labeled (the crystallised protein only)
With B1, the “stoichiometry N” value turned out to be 2.
